Patent US20230374116A1 (ROSALIND FRANKLIN INSTITUTE, published 2023)
Like-named read-outs stand apart in the source and are kept apart here.

B1: H3 (VHH)
VHH: QVQLVESGGGLVKTGGSLRLSCAASGRTFSTYSMGWFRQAPGKEREFVAGMRWTGSSTFYSDSVKGRFTVSRNNAKDTVYLHMNSLKPEDTAVYYCAITTIVRAYYTEYTEADFGSWGQGTQVTVSS
B2: C5 (VHH)
VHH: QVQLVESGGGSVQAGGSLTLSCVASGVTLGRHAIGWFRQAPGKERERVSCIRTFDGITSYVESTKGRFTISSNNAMNTVYLQMNSLKPEDTAVYFCALGVTAACSDNPYFWGQGTQVTVSS
notes: also called VHH C5
B3: H3 trimer (VHH)
chain: QVQLVESGGGLVKTGGSLRLSCAASGRTFSTYSMGWFRQAPGKEREFVAGMRWTGSSTFYSDSVKGRFTVSRNNAKDTVYLHMNSLKPEDTAVYYCAITTIVRAYYTEYTEADFGSWGQGTQVTVSSGAVLAPQVQLVESGGGLVKTGGSLRLSCAASGRTFSTYSMGWFRQAPGKEREFVAGMRWTGSSTFYSDSVKGRFTVSRNNAKDTVYLHMNSLKPEDTAVYYCAITTIVRAYYTEYTEADFGSWGQGTQVTVSSGSGSGSQVQLVESGGGLVKTGGSLRLSCAASGRTFSTYSMGWFRQAPGKEREFVAGMRWTGSSTFYSDSVKGRFTVSRNNAKDTVYLHMNSLKPEDTAVYYCAITTIVRAYYTEYTEADFGSWGQGTQVTVSS
B4: C5 trimer (VHH)
chain: QVQLVESGGGSVQAGGSLTLSCVASGVTLGRHAIGWFRQAPGKERERVSCIRTFDGITSYVESTKGRFTISSNNAMNTVYLQMNSLKPEDTAVYFCALGVTAACSDNPYFWGQGTQVTVSSGSGSGSQVQLVESGGGSVQAGGSLTLSCVASGVTLGRHAIGWFRQAPGKERERVSCIRTFDGITSYVESTKGRFTISSNNAMNTVYLQMNSLKPEDTAVYFCALGVTAACSDNPYFWGQGTQVTVSSGSGSGSQVQLVESGGGSVQAGGSLTLSCVASGVTLGRHAIGWFRQAPGKERERVSCIRTFDGITSYVESTKGRFTISSNNAMNTVYLQMNSLKPEDTAVYFCALGVTAACSDNPYFWGQGTQVTVSS
notes: also called trimeric C5 nanobody; C5-6GS-C5-6GS-C5
B5: C1 trimer (VHH)
chain: QVQLVESGGGLVQPGGSLRLSCAASGFTNDFYSIAWFRQAPGKEREGVSWLSVSDNTPTYVDSVKDRFTISRHNANNTVYLQMNMLKPEDTAIYYCAAGRFAGRDTWPSSYDYWGQGTQVTVSSGSGSGSQVQLVESGGGLVQPGGSLRLSCAASGFTNDFYSIAWFRQAPGKEREGVSWLSVSDNTPTYVDSVKDRFTISRHNANNTVYLQMNMLKPEDTAIYYCAAGRFAGRDTWPSSYDYWGQGTQVTVSSGSGSGSQVQLVESGGGLVQPGGSLRLSCAASGFTNDFYSIAWFRQAPGKEREGVSWLSVSDNTPTYVDSVKDRFTISRHNANNTVYLQMNMLKPEDTAIYYCAAGRFAGRDTWPSSYDYWGQGTQVTVSS
B6: C1 (VHH)
VHH: QVQLVESGGGLVQPGGSLRLSCAASGFTNDFYSIAWFRQAPGKEREGVSWLSVSDNTPTYVDSVKDRFTISRHNANNTVYLQMNMLKPEDTAIYYCAAGRFAGRDTWPSSYDYWGQGTQVTVSS
B7: F2 (VHH)
VHH: QVQLVESGGGLVQAGGSLRLACIASGRTFHSYVMAWFRQAPGKEREFVAAISWSSTPTYYGESVKGRFTISRDNAKNTVYLQMNRLKPEDTAVYFCAADRGESYYYTRPTEYEFWGQGTQVTVSS
notes: also called VHH F2

Tests used:
Alpha RBD [1] = biological target: Alpha RBD
Alpha RBD [2] = biological target: Alpha RBD; remark: listed apart in the source

Binder	Kd (Alpha RBD [1])	T1/2 (Alpha RBD [1])	Kd (Alpha RBD [2])	T1/2 (Alpha RBD [2])	koff (Alpha RBD [2])	kon (Alpha RBD [2])
B1	102 pM	10 min				
B2	2520 pM	1 min				
B3			6 pM	98 min	0.00012 s⁻¹	1.8e+07 M⁻¹ s⁻¹
B4			29 pM	41 min		
B5			73 pM	154 min	7.4e-05 s⁻¹	1e+06 M⁻¹ s⁻¹
B6	725 pM	21 min				
B7	47 pM	51 min				
